Data set [1] deals with the molecule itself. Description: self-assembly, TEM.
Data set [2] deals with the molecule itself. Description: disulfide-mediated self-assembly.
Data set [3] concerns the molecule itself. Description: oxidative self-assembly conditions; TEM.

Positions count from the first letter of the chain named. In names and notes the source's numbering stands.

B1: ^C98RhuA-HisTag (enzyme)
chain: MQNITQSWFVQGMIKATTDAWLKGWDERNGGNLTLRLDDADIAPYHDNFHQQPRYIPLSQPMPLLANTPFIVTGSGKFFRNVQLDPAANLGIVKVDSCGAGYHILWGLTNEAVPTSELPAHFLSHSERIKATNGKDRVIMHCHATNLIALTYVLENDTAVFTRQLWEGSTECLVVFPDGVGILPWMVPGTDAIGQATAQEMQKHSLVLWPFHGVFGSGPTLDETFGLIDTAEKSAQVLVKVYSMGGMKQTISREELIALGKRFGVTPLASALALGSGSGHHHHHH
notes: also called RhuA-C98-HisTag; C98-His tagged RhuA mutant
As for B1, the binding result in data set [1] is recorded as “binds”.

B2: ^C98RhuA-ACP (enzyme)
chain: MQNITQSWFVQGMIKATTDAWLKGWDERNGGNLTLRLDDADIAPYHDNFHQQPRYIPLSQPMPLLANTPFIVTGSGKFFRNVQLDPAANLGIVKVDSCGAGYHILWGLTNEAVPTSELPAHFLSHSERIKATNGKDRVIMHCHATNLIALTYVLENDTAVFTRQLWEGSTECLVVFPDGVGILPWMVPGTDAIGQATAQEMQKHSLVLWPFHGVFGSGPTLDETFGLIDTAEKSAQVLVKVYSMGGMKQTISREELIALGKRFGVTPLASALALGSGSGSTIEERVKKIIGEQLGVKQEEVTNNASFVEDLGADSLDTVELVMALEEEFDTEIPDEEAEKITTVQAAIDYINGHQA
As for B2, in data set [1], the binding result is reported as “binds”.

B3: ^C98RhuA (L-rhamnulose-1-phosphate aldolase variant D98C/C126S/E192A) (enzyme)
chain: MQNITQSWFVQGMIKATTDAWLKGWDERNGGNLTLRLDDADIAPYHDNFHQQPRYIPLSQPMPLLANTPFIVTGSGKFFRNVQLDPAANLGIVKVDSCGAGYHILWGLTNEAVPTSELPAHFLSHSERIKATNGKDRVIMHCHATNLIALTYVLENDTAVFTRQLWEGSTECLVVFPDGVGILPWMVPGTDAIGQATAQEMQKHSLVLWPFHGVFGSGPTLDETFGLIDTAEKSAQVLVKVYSMGGMKQTISREELIALGKRFGVTPLASALAL
notes: C4 symmetric homotetramer (4 x 274 residues); Tetramers link to each other through single C98-C98 disulfide bonds at the corners; also called RhuA-C98; Rhu-C98
Regarding B3, the binding result in data set [2] is on record as “binds”.

B4: ^C266RhuA (enzyme)
chain: B3 chain with C98D, T266C
notes: Surface cysteine lies on the sides of the tetramer; also called RhuA-C266
With B4, the binding result in data set [3] is “binds”.

B5: ^C133RhuA (enzyme)
chain: B3 chain with C98D, N133C
notes: Surface cysteine lies on the sides of the tetramer; also called RhuA-C133
On to B5, for which, in data set [3], the binding result is “binds”.

B6: ^C98RhuA-Pd4 (enzyme)
chain: MQNITQSWFVQGMIKATTDAWLKGWDERNGGNLTLRLDDADIAPYHDNFHQQPRYIPLSQPMPLLANTPFIVTGSGKFFRNVQLDPAANLGIVKVDSCGAGYHILWGLTNEAVPTSELPAHFLSHSERIKATNGKDRVIMHCHATNLIALTYVLENDTAVFTRQLWEGSTECLVVFPDGVGILPWMVPGTDAIGQATAQEMQKHSLVLWPFHGVFGSGPTLDETFGLIDTAEKSAQVLVKVYSMGGMKQTISREELIALGKRFGVTPLASALALGSGSGTSNAVHPTLRHL
notes: also called C98-RhuA-Pd4 mutant
B6: the binding result in data set [1] is recorded as “binds”.

Values taken from patent US20180354988A1 (University of California, published 2018).
